For 167 variants, abundance fitness results are on record in the Human Domainome abundance scans (Beltran et al. 2025).

B1: Chromodomain-helicase-DNA-binding protein 3, residues 374 to 426; numbered along this chain, Q12873 (parent)
chain: YETDHQDYCEVCQQGGEIILCDTCPRAYHLVCLDPELDRAPEGKWSCPHCEKE

± gives the uncertainty stated by the source.

The data set covers variants of B1. The data set can be described thus: abundance fitness (aPCA) (normalised: wild type 0, dead -1); higher = more abundant; growth selection in yeast, the domain comes from the species named. As to conditions: Homo sapiens.
As for P41H, the abundance fitness was -0.374 ± 0.23. On to P41I, for which the abundance fitness is -0.083 ± 0.17. As for P41G, the abundance fitness is 0.028 ± 0.097. On to P41K, for which the abundance fitness was -0.25 ± 0.22.

For P41A, the abundance fitness was -0.114 ± 0.12.

In the case of I18G, the abundance fitness was -0.087 ± 0.11.

As for I18Q, the abundance fitness is -0.107 ± 0.14. To C50Q belongs -0.57 ± 0.22; to C50Y, -0.791 ± 0.15; to C50L, -0.468 ± 0.11. As for C50V, the abundance fitness is -0.598 ± 0.12. With L20C, the abundance fitness was 0.01 ± 0.15. Regarding L20F, the abundance fitness is 0.037 ± 0.15. For the variant L20P, the abundance fitness is 0.402 ± 0.11.

Take E2C: the abundance fitness came to 0.138 ± 0.15. To E2G belongs -0.011 ± 0.13.

As to E2I, the abundance fitness was determined as 0.419 ± 0.1. To E2Q belongs 0.231 ± 0.17; to E17Q, -0.147 ± 0.14; to E17R, -0.148 ± 0.085. To L30G belongs -0.014 ± 0.13; to Y28N, -0.377 ± 0.14.

In the case of Y28L, the abundance fitness is -0.059 ± 0.1. To Y28W belongs 0.143 ± 0.14; to Y28K, -0.578 ± 0.22.

In the case of P48W, the abundance fitness was -0.358 ± 0.14.

In the case of P48E, the abundance fitness is -0.074 ± 0.14. As to P48C, the abundance fitness was -0.203 ± 0.15. To P48M belongs -0.07 ± 0.12; to P48H, -0.599 ± 0.28; to P48G, -0.031 ± 0.097. P48T: the abundance fitness is -0.24 ± 0.16. To P48V belongs -0.139 ± 0.11; to D7Q, -0.146 ± 0.26; to D7G, -0.055 ± 0.14. For the variant D7F, the abundance fitness is -0.37 ± 0.22. In the case of A40H, the abundance fitness was -0.412 ± 0.22. A40R: the abundance fitness was -0.129 ± 0.11.

Consider G16V, for which the abundance fitness is -0.113 ± 0.11. As for G16S, the abundance fitness came out at 0.118 ± 0.1. With G16C the figure was -0.256 ± 0.14; with G16M, -0.237 ± 0.15. To G16D belongs -0.053 ± 0.18; to C47Q, -0.835 ± 0.31; to C47G, -0.767 ± 0.11. Take Q13V: the abundance fitness was -0.057 ± 0.084. Turning to Q13E, the abundance fitness was -0.09 ± 0.12.

In the case of V31F, the abundance fitness is -0.09 ± 0.12. For V31K, the abundance fitness is -0.132 ± 0.15. With V31Q the figure was -0.012 ± 0.13; with V31L, -0.17 ± 0.094; with C21A, -0.778 ± 0.16.

Consider C21W, for which the abundance fitness is -0.831 ± 0.15.

Turning to C21D, the abundance fitness is -0.868 ± 0.26.

With C21V, the abundance fitness is -0.57 ± 0.13. On to C21P, for which the abundance fitness was -0.984 ± 0.34. With L33F the figure was -0.449 ± 0.14. Consider L33N, for which the abundance fitness is -0.326 ± 0.14. For the variant L33Y, the abundance fitness was -0.133 ± 0.15. For the variant L33D, the abundance fitness is -0.755 ± 0.29. With Q14R the figure was 0.017 ± 0.088; with Q14D, -0.166 ± 0.18. Regarding H5D, the abundance fitness is -1.03 ± 0.24.

On to H5C, for which the abundance fitness was determined as 0.222 ± 0.24. With H5G the figure was 0.366 ± 0.11; with H5W, -0.197 ± 0.12; with H5Q, 0.13 ± 0.11.

Turning to Q6D, the abundance fitness is -0.294 ± 0.28.

As for Q6A, the abundance fitness was -0.209 ± 0.27. With Q6C the figure was -0.499 ± 0.17; with E42L, 0.066 ± 0.1; with E42T, -0.173 ± 0.2. On to G15Q, for which the abundance fitness was -0.434 ± 0.27. As to G15M, the abundance fitness was 0.084 ± 0.21. To G15V belongs -0.609 ± 0.21; to G15A, 0.329 ± 0.18; to I19N, 0.167 ± 0.22.

On to I19L, for which the abundance fitness was 0.093 ± 0.097. With D22F, the abundance fitness is -0.344 ± 0.19. With D22N the figure was -0.008 ± 0.15. With D22P the figure was -0.109 ± 0.18; with E36Q, -0.193 ± 0.15. E36N: the abundance fitness was determined as 0.143 ± 0.27. For E36C, the abundance fitness was 0.182 ± 0.19. Consider C12N, for which the abundance fitness was -0.67 ± 0.17. Consider C12H, for which the abundance fitness is -0.999 ± 0.17. Regarding C12V, the abundance fitness is -0.78 ± 0.14. To C12A belongs -0.712 ± 0.15; to C12I, -0.947 ± 0.2; to D4K, -0.041 ± 0.15. To D4Y belongs -0.126 ± 0.24. With D4M the figure was 0.438 ± 0.11; with D4I, -0.156 ± 0.15; with Y1N, -0.287 ± 0.25. With Y1W, the abundance fitness came out at 0.259 ± 0.21. Consider V11W, for which the abundance fitness is -0.266 ± 0.089. To V11C belongs 0.184 ± 0.089; to K44C, -0.071 ± 0.14. To K44G belongs 0.101 ± 0.092; to K44S, 0.077 ± 0.13. With P25I, the abundance fitness is -0.261 ± 0.33. To P25N belongs -0.204 ± 0.4; to E51L, -0.039 ± 0.1; to E51D, -0.37 ± 0.21. To E51T belongs -0.156 ± 0.14; to R39S, 0.01 ± 0.12; to R39Q, -0.182 ± 0.26. As for R39V, the abundance fitness is -0.248 ± 0.11. With R39Y the figure was -0.027 ± 0.19. To S46I belongs 0.12 ± 0.16; to S46W, -0.043 ± 0.17. To S46P belongs -0.327 ± 0.19; to S46A, -0.064 ± 0.11. Regarding K52G, the abundance fitness is -0.137 ± 0.1. To K52T belongs 0.01 ± 0.2; to K52E, -0.308 ± 0.22.

For the variant K52S, the abundance fitness was 0.049 ± 0.12.

Turning to K52V, the abundance fitness is -0.357 ± 0.14.

W45N: the abundance fitness is 0.035 ± 0.19. To W45E belongs -0.099 ± 0.15; to W45H, -0.101 ± 0.18; to W45C, -0.182 ± 0.17.

In the case of W45L, the abundance fitness is -0.218 ± 0.1.

T23N: the abundance fitness worked out at 0.122 ± 0.15. Turning to T23E, the abundance fitness was -0.077 ± 0.16. With T23V the figure was -0.162 ± 0.17; with T23R, -0.179 ± 0.11; with T23W, -0.631 ± 0.19. In the case of T3Q, the abundance fitness was -0.069 ± 0.15. T3R: the abundance fitness was determined as 0.206 ± 0.082. To T3G belongs 0.136 ± 0.1; to R26A, -0.202 ± 0.11; to R26P, -0.655 ± 0.17. To R26M belongs -0.106 ± 0.16; to R26Q, 0.417 ± 0.28; to G43S, -0.043 ± 0.096.

As to G43F, the abundance fitness was -0.257 ± 0.19. Consider G43L, for which the abundance fitness was -0.343 ± 0.12. Consider G43I, for which the abundance fitness was -0.368 ± 0.21. With H29N the figure was -0.383 ± 0.17; with H29K, -0.912 ± 0.17; with H29W, -0.656 ± 0.14. H29R: the abundance fitness is -0.786 ± 0.097. For Y8W, the abundance fitness is -0.086 ± 0.12. To Y8E belongs 0.098 ± 0.12; to Y8I, 0.21 ± 0.21. Turning to E53W, the abundance fitness was -0.401 ± 0.32.

As for E53H, the abundance fitness is -0.426 ± 0.3. To E53R belongs -0.276 ± 0.21; to E53I, -0.37 ± 0.36; to C24R, -0.951 ± 0.14. With C24H the figure was -0.907 ± 0.25; with C24I, -0.9 ± 0.35; with C24Y, -1.34 ± 0.24. To D38Y belongs -0.522 ± 0.28. Turning to D38F, the abundance fitness was -0.082 ± 0.22. With P35V the figure was 0.029 ± 0.088; with C32H, -0.163 ± 0.085. To C32R belongs -1.06 ± 0.12; to C32I, -1.06 ± 0.12; to C32N, -0.797 ± 0.13. With C9L the figure was -0.681 ± 0.1; with C9Q, -0.551 ± 0.15; with E10M, -0.301 ± 0.13.

For the variant E10T, the abundance fitness is 0.132 ± 0.12.

In the case of E10N, the abundance fitness came to 0.268 ± 0.14.

Turning to E10P, the abundance fitness was -0.006 ± 0.14.
